According to a protein production outcome set (Wang et al. 2014):

Test: label from the status in PepcDB records

Sequence	protein production
MSPIVSVPDITAPVENVPAILPKVVPGELIVNKPTGGDSDELFQYLVDILASPVYDVAIESPLELAEKLSDRLGVNFYIKREDKQRVFSFKLRGAYNMMSNLSREELDKGVITASAGNHAQGVALAGQRLNCVAKIVMPTTTPQIKIDAVRALGGDVVLYGKTFDEAQTHALELSEKDGLKYIPPFDDPGVIKGQGTIGTEINRQLKDIHAVFIPVGGGGLIAGVATFFKQIAPNTKIIGVEPYGAASMTLSLHEGHRVKLSNVDTFADGVAVALVGEYTFAKCQELIDGMVLVANDGISAAIKDVYDEGRNILETSGAVAIAGAAAYCEFYKIKNENIVAIASGANMDFSKLHKVTELAGLGSGK	not failed
MSPSDSSGDSDDPARSRAAVRRTYEDIGDHFSKTREYAWPEVESFVDESGSVGTALDAGCGNGRHAELLAGVADRVVGLDASRALLRAATDRVGDSVALLQGDATRLPLAAGAVDLAVYVATLHHLPSQTARRASLDELARVLAPGARALVSAWSTAHDHFDADPDADEGFDTTVDWTLPGGETVPRFYHIYAPAEFERDVADSDLRLVSMELSSGNCYGVVEPEGKRT	failed
MSQEDITGKDRLQELIGADYRLQWIIGHGGMSTVWLADDVVNDREVAIKVLRPEFSDNQEFLNRFRNEAQAAENIDSEHVVATYDYREVPDPAGHTFCFIVMEFVRGESLADLLEREGRLPEDLALDVMEQAAHGLSVIHRMDMVHRDIKPGNMLITANGIVKITDFGIAKAAAAVPLTRTGMVVGTAQYVSPEQAQGKEVTAASDIYSLGVVGYEMMAGRRPFTGDSSVSVAIAHINQAPPQMPTSISAQTRELIGIALRKDPGRRFPDGNEMALAVSAVRLGKRPPQPRTSAMMAQAEAPSPSESTAMLGRVARPATITQEAAPKRGSGIGIGLFIAALLAVIIGAVIYAGTTGILFNDTPEETTTPETITETYTPTVEETTSQWVPPTPPTRSTFTEPETTSHRPTTSEESTSEEPTTEAPTSSRTVPQIPTSTPRTSASVPVETNAPADDLIDAVNGLLDVGGAQ	failed
MSQERTDGDLRNTGLSLKHDREWDYELDRIVEAVEERDAEKVGLQFPEGLKRRGPAVADDLREELPDDVTVLLSGQPCYGACDLDTYMMRRTDVFVHFGHSPMKESDKIIYVPLFSNVDVFPIMEQAREEQLADPEDDPDVGLVTTAQHMNKFDEMREWLEERGYTVHTRRGDERLTHEGQVLGCNYASADVDADQMLYVGGGKFHPLGLAMEHPEKHVVIADPVNNVVTVADTEKFMKQRYGAVHRAMDAESWGVIFCTKIGQGRWDQAEEIVENNENAYLITMDEVTPDRLTNFGMDAYVNTGCPRITTDDGPQFKKPMLTPGEYEIAIGEKPLDSLEFDTFHGTWLEHHHHHH	not failed
MSQFDRIHLVVLDSVGIGAAPDANDFVNAGVPDGASDTLGHISKTVGLAVPNMAKIGLGNIPRPQALKTVPAEENPSGYATKLQEVSLGKDTMTGHWEIMGLNITEPFDTFWNGFPEDIITKIEDFSGRKVIREANKPYSGTAVIDDFGPRQMETGELIIYTSADPVLQIAAHEDIIPLEELYRICEYARSITMERPALLGRIIARPYVGEPGNFTRTANRHDYAVSPFEDTVLNKLDQAGIDTYAVGKINDIFNGSGINHDMGHNKSNSHGIDTLIKTMGLSEFEKGFSFTNLVDFDALYGHRRDPHGYRDCLHEFDERLPEIISAMRDKDLLLITADHGNDPTYAGTDHTREYIPLLAYSPSFTGNGLIPVGHFADISATVADNFGVDTAMIGESFLQDLV	failed
MSQIEAVFFDCDGTLVDSEVICSRAYVTMFRQFGITLELTEVFRRFKGVKLYEIIDTISKEHGVALAKAELEPVYRAEVARLFDTELEAIAGANTLLESIKTPMCVVSNGPVSKMQHSLGKLGMLHHFPDLLFSGYDIQRWKPDPALMLHAANAMKVNVEKCILVDDSSAGAQSGIAAGMEVFYFCADPHNKPIDHPNVTTFTDLAQLPGLWKARGWEI	not failed
MSQIWFERILRWRKKAQRFLQGRYARFDELNRTLLLTSVVLALINIFTGYLWVRLLILITVAYVYYRFFSKHIHPRLNENQWFILRKQRLMQKVHAFRKRHMTQKEYRYFKCPKCQQSLRAPKGRGTIKVTCSNCQNQFIKKV	failed
MSQMSPGQARVVDPILSTHARGYRQSTLIGKKLFPVAPVAQYGGKILTFGKEAFRLYNTKRAPGANTKRIDFGYEGDPYSIVPSALEAKVPRELMRDASQVPGIDLGARSVNTVLRIMALAHEHECAQIALDPAKYNADHKVKLVGSARWTSPDSDPTKDVETAKEAIADSIGMEPNRLMLSRKALSACKYHPKLIERVKYTRAESITIDMLKALWEVEEIVVGTARVATGANDSFGDVWGPDVWLGYVSDNPDPSVEEPSFGYTYQIEGHPLVEVPYWDNNAKSWIYGVSDDNTPALSGMLAGYLIEDAGLPAA	not failed
MSQPNFLLFITDQHRADHLGAYGNSQIRTPALDALARRGWLAERFYVASPICMPNRATLMTGRMPSAHGARHNGIPLSQRATTFVERLRQAGYGTALVGKSHLQNMTGNGPVWPRPQDPPAEGEAWAPEPGDYDQEWGPLWREDPAHDLATPFYGFSQVDLAVDHGDRVWGHYWRWLQREHPEVAAQAGPDHALPAPGFELVRAGQAWRTRVPESCSTTAYLGRRTMQALDGYAQRGQPFFIQCSFPDPHHPFTPPGKYWDMYRPEDVELPASFHASAAAGRQPPPHVQWMYAQRDSGRAVKHTPAMFACTEREAREAIALNYGSISHIDHTVGEVLAHLQRLGLADNTVVIFTSDHGDYLGDHQLLWKGPVHYQSVIRTPFIWADPAGAQGARSDALCSTTDIAPTILARAGLLPYNGIQGADLGALMRGEQAAPREAVLIEEEGQRVMFGFDKRVRMRTLQTGRYRMSVYHGVSWGELYDLREDPLELRNLWDEPGSAALRQDLLFQLAQNLIGHGETSPHPTALA	failed
MSQPSALPAADSLAALHPGFKSSALVWLGVMVALWGFSWPVMKICVGLAPPLWLAAIRFTSSGLCLFAFLACRGELRLPPRADWPIVASVGGLQMMAFTGLGLVAMQYTDAGRAALLAYTTPLWAVVTAWIAFGQRPTAAQGVALCVGLSGVAVICSPADMDWGDSTVLLGNALLLLSAMCWSFVILHVRRHRFTARPIDLAPWQMLLAALPLIVIAASVDGSPLTIAWTPELIGFLIYFGPIATSACFVISSEYGRRVSAFAMSNITLGVPVIGMLSSIFLLGERVTVPLIIGLTLIVSGVALAALAVNRKAAAGRADTALRSQAGKANWPTA	failed
MSQPVAFVTGCSSGIGRALADAFQRAGYRVWASARKEDDVRALAEAGFQAVQLDVNDAAALARLAEELGVEAAGLDVLVNNAGYGAMGPLLDGGVEAMRRQFETNVFAVVGVTRALFPLLRRKSGLVVNVGSVSGVLVTPFAGAYCASKAAVHALSDALRLELAPFGVEVLEVQPGAIASNFGASASREMDSVVDERSPWWPLRRQIQARAAASQDNPTSAEDFARQLLAAVQRRPRPPLVRIGNGSRALPALARWLPRGLLERLLKKRFGLDTRL	failed
MSQQKSDFADDADIDESLDELASEETIEETVENLEANGFEVIVVNSADDALAELQSLIPAEASVMNGHSTTLEEIGFDEYLSDGDHGWESLPEEIWSIDDDAKRQAARRESQTADYFLGGINGISQTGELVAADRSGSRIGAYPFAASNVVIVSGVNKIVPTLEDALDRLETVAYPLENERAKEAYGVDSAIAKQLILRQELEEGRTTVVLIREHLGYLEHHHHHH	not failed
MSQQPESDRTEGDLRNTGMELKHERTWDYELDRIVDAVEERDAMKVGLQFPEGLKRRAGRVADDLRRLLPDETTVLLSGQPCYGACDLDTYMMRRTDVFVHFGHSPMKESDKIIYVPLFSNVEVTPIMEEARAELAAPEEDDAVGLVTTAQHMNRFDEMQAWLEERGYTVETRRGDERLTHEGQVLGCNYASADVDADQILYVGGGKFHPLGLAMEHPDKKVIIADPVNNAVHVADTEQFMKQRYAAVHKAMDAEEWGVIFCTKIGQGRWDTAEEIVEANDNAYLITMDEVTPDRLTNFGFDAYVNTGCPRITTDDGPQFKQPMLTPGEYKIAIGEKPMDSLSFDTFHGTW	failed
MSQRTSEENRYEQLHRFAAKIHSTMQIDDVLEEIICTLQNVYPAFTYHLLLSHDNHVCGNLPIKTLALDESEGQPAALRAFLTGQVQCEETAAPPRSVLYAPIKGVQAVYGVIQIIAPYAAPFPKREINFISLLAGTAGRALENAKLYEQSRRLEHHHHHH	not failed
MSQSSKARLSTDPTVFEAVLNNHTPMMQQYLRIKAQHPDMLMFYRMGDFYELFFDDAEKAAKLLDITLTRRGTSAGEPIKMAGVPYHAAEQYLAKLVKLGESVVICEQVGDPATSKGPVERQVTRIITPGTLTDAALLEDKRDSALLALLVHESTLGLAWLNLAAGQFSVMETSVNNLTAELERLKPAEILLPESLNLAGINDRVIQEKLCVKHLPAWQFDTAAAVRNLSRQFGTHDLSGFGCEDLDVSLGAASALLDYTRLTQGASIGHIKGLRVEREDTYLRMDATTRRNLEISETIRGDAAPTLLSLLDTCSTNMGSRLLCHWLHHPLRDRGLIQNRLNGVSFLMGEAGSGPCLSVRDCLKRVTDIERITARIALKSARPRDLSGLRDSLKRLPAVNNAVAGTATTSSGGSDVSAHVAALIHSMAPDNALVALLEKSLKEEPEVMLRTGGVIADGYDAELDELRAIHNNCDEFLLQLETREKARTGIANLKVEYNRLHGFYIEVTHAHTEKIPDDYRRRQTLKNAERYITPELKAFEEKALSAQSRALEREKLLYGELLDMLSQYIDHLQQVARSVAELDVLATFAERALALDYSLPLFTSDSVIEIQAGRHPVVEKQVDSFIANDVQLGARTGGRRQMLVITGPNMGGKSTYMRQVALIALLAHCGSFVPARSALIGPLDQLFTRIGASDDLAGGRSTFMMEMTEAANILHNATAQSLVLMDEVGRGTSTFDGLALAFAIARYLLEKNRSYTLFATHYFELTRLAEEFAQVANVHLRAVEHKHHIVFLHAVNEGPASQSYGLQVAALAGVPDPVIRTARRYLLKLEQEALSNQPQGDLFSRDDLFWKQDRMPEGSVDKNDSAPEHPVLALLRTIVPDDLSPKQALEQLYGLKKAAEKE	failed
MSQTPSLAQLQPADAFLRRHLGPDPAEQQAMLAFLGVSTRAELIVQTVPPAIRLNRPLELPAALDEQAALARLRGYAGLNQRWTSLIGMGYYGTVTPSVILRNVLENPGWYTAYTPYQPEIAQGRLEALLNFQQLTIDLTGLDLASASLLDEATAAAEAMALARRVAKARSNRFFVDAHCHPQTVSVLRTRAEAFGFELVVDEPDNLAAHAVFGALLQYPDSRGEIRDLRPLIEALHGQQALACVASDLLALLLLTPPGELGADVVLGSAQRFGVPMGYGGPHAAFFATREGYKRAMPGRIIGVSRDARGNPALRMALQTREQHIRREKANSNICTAQVLLANIASLYAVYHGPQELKRIAQRVQRLTALLAAGLKSKGLRRLNRHFFDTLTYEVGERQAAILERARAARVNLRVVDDRRLALSLDETCDAATLATLFEIFLGAGHGLDVAHLDGGAVADGIPAVLQRTSAYLQHPVFNAHHSETEMLRYLRQLEGKDLALNQAMIPLGSCTMKLNASSEMIPITWPEFAELHPFVPREQAEGYRRMIDELEAWLRAITGFDAICMQPNSGAQGEYAGLLAIRRYHQSRGDSQRDICLIPASAHGTNPASAIMASMRVVIVECDPRGNVDLDDLRLKAAEAGDRLSCLMITYPSTHGVYEEGIGEICEVVHRHGGQVYMDGANLNAQVGLARPADIGADVSHMNLHKTFCIPHGGGGPGMGPIGVKRHLAPFVANHPVIRVEGPNPLNDAVSATPWGSASILPISWMYIAMMGPQLADASEVAILSANYLANRLDGAFPVLYRGRNERVAHECILDLRPLKAQTGITEEDVAKRLMDYGFHAPTMSFPVPGTLMVEPTESESKAELDRFVEAMLSIRAEIGKVESGAWPAEDNPLKRAPHTLADVTGIWQRPYEIAEAVTPSEHARAFKYWPAVNRVDNVYGDRNLFCACVPLDDYR	failed
